{"source": "paper PMC11388340", "key": {"[1]": {"target": "HIRA-WB/UBN1-NM/H3.3/H4 complex (human | X. laevis) (UniProt P54198)", "assay": "AUC; sedimentation velocity of the HIRA-WB/UBN1-NM/H3.3/H4 SEC peak at three loading concentrations, 4 °C, 20 mM HEPES pH 6.95, 500 mM NaCl, 0.5 mM TCEP; global fit in Sedphat to monomer-dimer self-association: 2:2:2:2 assembly to 1:1:1:1 assemblies"}, "H3.3/H4 (Homo sapiens)": {"target": "H3.3/H4 (Homo sapiens) (UniProt P84243)", "details": "cited from earlier work"}, "H3/H4 (Homo sapiens)": {"target": "H3/H4 (Homo sapiens) (UniProt P84243)", "details": "cited from earlier work"}, "[2]": {"target": "ASF1a-C labelled with fluorescein-5-maleimide (human) (UniProt Q9Y294)", "sequence (Q9Y294 1-156)": "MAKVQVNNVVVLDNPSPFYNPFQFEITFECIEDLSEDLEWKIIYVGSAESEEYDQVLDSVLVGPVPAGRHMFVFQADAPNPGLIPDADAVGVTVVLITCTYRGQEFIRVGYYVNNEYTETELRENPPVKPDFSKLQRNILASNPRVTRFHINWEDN", "assay": "fluorescence polarisation; direct binding: protein titrated into 10 nM fluorescently labelled ASF1a-C probe; 20 mM HEPES pH 7.5, 150 mM NaCl, 0.5 mM TCEP, 0.001% Tween-20, 1 mg/ml BSA; one-site total binding model"}, "[3]": {"target": "H3.3/H4 (Homo sapiens (H3.3); Xenopus laevis (H4)) (UniProt P84243+P62799)", "assay": "competition", "details": "20 mM HEPES pH 7.5, 150 mM NaCl, 0.5 mM TCEP, 0.001% Tween-20, 1 mg/ml BSA; 10 nM probe; temperature not stated"}, "[4]": {"target": "ASF1a-C labelled with Alexa Fluor 488 (human) (UniProt Q9Y294)", "sequence (Q9Y294 1-156)": "as above", "assay": "fluorescence polarisation; direct binding: protein titrated into 10 nM fluorescently labelled ASF1a-C probe; 20 mM HEPES pH 7.5, 150 mM NaCl, 0.5 mM TCEP, 0.001% Tween-20, 1 mg/ml BSA; one-site total binding model"}, "[5]": {"target": "H3.3/H4 heterodimer (human | X. laevis) (UniProt P84243)", "assay": "AUC; sedimentation equilibrium of H3.3/H4 alone, 4 °C, three loading concentrations, 15,000, 25,000 and 30,000 rpm, 20 mM HEPES pH 7.5, 100 mM NaCl, 100 mM KCl, 2 mM MgCl2, 1 mM EDTA, 0.05% Brij-35; monomer-dimer model: (H3.3/H4)2 tetramer to H3.3/H4 heterodimers"}, "[6]": {"target": "HIRA-WB/UBN1-NM complex (human) (UniProt P54198)", "assay": "AUC; sedimentation velocity of the HIRA-WB/UBN1-NM/H3.3/H4 SEC peak at three loading concentrations, 4 °C, 20 mM HEPES pH 6.95, 500 mM NaCl, 0.5 mM TCEP; global fit in Sedphat to monomer-dimer self-association: 2:2:2:2 assembly to 1:1:1:1 assemblies"}}, "data": [{"substance": "HIRA-WB/UBN1-NM/H3.3/H4 complex (from UniProt P54198 1-473; Q9NPG3 1-584; P84243 1-136; P62799 1-103)", "values": [{"measurement": "Kd", "setting": "[1]", "value": 6000, "unit": "nM"}, {"measurement": "stoichiometry N", "setting": "[1]", "value": 2}]}, {"substance": "UBN1 (from UniProt Q9NPG3)", "values": [{"measurement": "Kd", "setting": "H3.3/H4 (Homo sapiens)", "value": 7000, "unit": "nM"}]}, {"substance": "ASF1a (from UniProt Q9Y294)", "values": [{"measurement": "Kd", "setting": "H3/H4 (Homo sapiens)", "value": 2.5, "unit": "nM"}]}, {"substance": "H3.3/H4 heterodimer (from UniProt P84243 1-136; P62799 1-103) (complex; other documents disagree on this pair)", "values": [{"measurement": "Kd", "setting": "[2]", "value": 280, "unit": "nM"}]}, {"substance": "60 bp dsDNA competitor", "values": [{"measurement": "Ki", "setting": "[3]", "value": 280, "unit": "nM"}]}, {"substance": "HIRA-WB/UBN1-NM/H3.3/H4 complex (from UniProt P54198 1-473; Q9NPG3 1-584; P84243 1-136; P62799 1-103) (complex; other documents disagree on this pair)", "values": [{"measurement": "Kd", "setting": "[4]", "value": 1000, "unit": "nM"}]}, {"substance": "H3.3/H4 heterodimer (from UniProt P84243 1-136; P62799 1-103) (complex)", "values": [{"measurement": "Kd", "setting": "[5]", "value": 6000, "unit": "nM"}, {"measurement": "stoichiometry N", "setting": "[5]", "value": 2}, {"measurement": "stoichiometry N", "setting": "[6]", "value": 1}]}]}
